Measured values published in PMC3285688, “Active Site Mutations Change the Cleavage Specificity of Neprilysin” (PLoS ONE, 2012).
Where “and” joins values, the source holds several entries; their conditions need not be identical. Equal values may be shown once. Each block holds one molecule with its values, some of them ahead of it.

Assays:
[1] = biological target: secreted form of human neprilysin, mutant F563V (human); test: enzyme kinetics, competitive (alternate substrate) inhibition of Glut-Ala-Ala-Phe-MNA hydrolysis, Dixon plot; insulin B chain varied from 1 to 40 µM against hydrolysis of the fluorogenic substrate Glut-Ala-Ala-Phe-MNA by NEP or mutant; Ki from ID50 = Ki(1+[S]/Km); 37°C, 20 mM MES buffer, pH 6.5
[2] = biological target: secreted form of human neprilysin, mutant F563L (human); test: as above
[3] = biological target: secreted form of human neprilysin, mutant F563M (human); test: as above
[4] = biological target: secreted form of human neprilysin (shNEP), wild type (human) (UniProt P08473); test: as above
[5] = biological target: secreted form of human neprilysin, mutant F563I (human); test: as above
insulin B chain [6] = test: Dual substrate assay: insulin B chain hydrolysis in presence of leu-ENK; type: biochemical; conditions: 15 µM insulin B chain and 64 µM leu-ENK together, 37°C, 20 mM MES buffer, pH 6.5
Procedure: (§1) The rate of cleavage of a substrate mixture is determined by both the kcat for that substrate as well by the affinity for the substrate. […] This is expected, given that each peptide acts as a competitive inhibitor of the other. […] That is the ratio for leu-ENK/insulin B chain cleavage is 3 for NEP^S546E compared to 6 for wild-type NEP.
(§2) Cleavage of physiological peptides was measured via reverse phase high performance liquid chromatography (HPLC) following incubation of the purified NEP or its mutants with 15 µM insulin B chain (Sigma Aldrich), 24 µM Aß1–40 (Anaspec), or 64 µM leu-ENK (Sigma) in 100 µL of 20 mM MES, pH 6.5, at 37°C. Reactions were run in triplicate. HPLC was carried out in a Vydac C4 column using a linear gradient from 0.1% trifluoroacetic acid (TFA) in 95% water, 5% acetonitrile to 0.1% TFA in 50% acetonitrile/water at a flow rate of 1 mL/min. Peptides and hydrolysis products were detected at 214 nm and quantified by measuring peak areas. Peptides obtained from HPLC were analyzed on an Applied Biosystems 4800 MALDI TOF/TOF Proteomics Analyzer at the University of Kentucky Proteomics core. This facility is supported in part by grant P20RR020171 from the NIH/NCRR.

leu-ENK [7] = test: Rate of leu-ENK hydrolysis (HPLC); type: biochemical; conditions: 64 µM leu-ENK, 37°C, 20 mM MES buffer, pH 6.5; disappearance of substrate by HPLC; at least triplicate
Procedure: as §2
(§3) Statistical analysis comparing wild-type NEP and its mutants was performed with Prism 4 software using a two-tailed paired t-test with a 95% confidence interval.

Aß1–40 [8] = test: Time course of product peak accumulation from Aß1–40; type: biochemical; conditions: 24 µM Aß1–40, 37°C, 20 mM MES, pH 6.5; 0-360 min, HPLC peak area, linear phase
Procedure: Similar to the analysis conducted with insulin B chain, the linear rate of product accumulation was determined for each peak and normalized to the amount of protein in the reaction, Table 7 . Unlike the hydrolysis of insulin B chain, the hydrolysis of Aß1–40, even at the earliest time points, produced products resulting from multiple cleavage events. Out of the 12 identified product peaks, only 3 could be produced by a single cleavage. Rates for all cleavages were calculated and are given in Figure 4, B–D , but only the three putative primary cleavage sites can be compared.
as §2

insulin B chain [9] = test: Rate of insulin B chain hydrolysis (HPLC); type: biochemical; conditions: 15 µM insulin B chain, 37°C, 20 mM MES buffer, pH 6.5; disappearance of substrate by HPLC; at least triplicate
Procedure: as §2, §3

Aß = conditions: transgenic mice; cited from earlier work
From the text: Because of its multiple targets, NEP has been the focus of numerous studies attempting to modulate its activity for therapeutic purposes. One such target is the use of NEP to reduce Aß peptide levels in Alzheimer's disease, since the oligomerization of Aß has been linked to the etiology of this disease. […] In yet another application inhibitors of NEP were developed to block its “enkephalinase” activity to increase the concentra ...

Aß1–40 [10] = test: Rate of Aß1–40 hydrolysis (HPLC); type: biochemical; conditions: 24 µM Aß1–40, 37°C, 20 mM MES buffer, pH 6.5; disappearance of substrate by HPLC; at least triplicate
Procedure: as §2, §3

[11] = system: leu-ENK and insulin B chain; test: Dual substrate assay: substrate preference leu-ENK versus insulin B chain; type: biochemical; conditions: ratio of rates, 15 µM insulin B chain and 64 µM leu-ENK together
Procedure: as §1, §2

insulin B chain [12] = test: Insulin B chain as alternate substrate (competitive) inhibitor of Glut-Ala-Ala-Phe-MNA hydrolysis (Dixon plot); type: biochemical; conditions: insulin B chain 1 to 40 µM as competitive inhibitor of Glut-Ala-Ala-Phe-MNA hydrolysis by the enzyme form, 37°C, 20 mM MES, pH 6.5, ID50 converted to Ki
Procedure: (§4) Kinetic constants for NEP and its mutants were obtained using the assay conditions noted above, but with Glut-Ala-Ala-Phe-MNA varied from 20 to 500 µM. Typically 12 data points were obtained. The data were fit to the Michaelis-Menten equation using Prism4 software. The Ki for insulin B chain was obtained by measuring the rate of Glut-Ala-Ala-Phe-MNA hydrolysis in the presence of varying concentrations of insulin B chain from 1 to 40 µM. Data were fit to a Dixon plot (1/rate versus [insulin B chain]) using Prism4 software and the ID50 obtained as the –x intercept, where ID50 corresponds to the concentration of insulin producing 50% inhibition. The actual Ki was obtained from the equation: ID50 = Ki (1+ [Glut-Ala-Ala-Phe-MNA]/KmGlut-Ala-Ala-Phe-MNA), [33].

insulin B chain [13] = test: Time course of product peak accumulation from insulin B chain; type: biochemical; conditions: 15 µM insulin B chain, 37°C, 20 mM MES, pH 6.5; 0-180 min, HPLC peak area 214 nm, linear phase
From the text: As a representative of the NEP^F563 and NEP^S546 mutants, we compared the cleavage profile of NEP^F563L and NEP^S546E to that of NEP using time course experiments, Figure 2 . By adjusting the amount of NEP mutant used, the rate of hydrolysis of insulin B chain by all NEP forms was virtually identical. […] Since rates were based on peak areas measured at 214 nm, which in turn is dependent on both the number of peptide bonds and the number of aromatic residues within a given peptide, only the observed rates of change for a particular peptide product can be compared between enzyme forms. A comparison of the rate of change of different peaks within the same enzyme form or between enzyme forms is not valid under our conditions of analysis.
as §2

[14] = Hydrolysis of synthetic substrate Glut-Ala-Ala-Phe-MNA by NEP and mutants (fluorogenic); type: biochemical; conditions: 37°C, 20 mM MES buffer, pH 6.5
Procedure: Reactions of 400 µl contained 100 µM Glut-Ala-Ala-Phe-MNA, 1 µg of aminopeptidase and 15 to 100 ng of NEP or mutant NEP depending on their activity in 20 mM MES buffer, pH 6.5. Activity was monitored with a Spectra Max Gemini XS plate reader using an excitation wavelength of 340 nm and an emission wavelength of 425 nm.
as §4

leu-ENK [15] = test: Dual substrate assay: leu-ENK hydrolysis in presence of insulin B chain; type: biochemical; conditions: 15 µM insulin B chain and 64 µM leu-ENK together, 37°C, 20 mM MES buffer, pH 6.5
Procedure: as §1, §2

Ki [1]: 1000 nM | Ki [2]: 1500 nM | Ki [3]: 1200 nM | Ki [4]: 1900 nM | Ki [5]: 2500 nM
Molecule: insulin B chain (from UniProt P01317 25-54) (peptide)

Ki (insulin B chain [12]): 1900 ± 200 nM
B1: NEP: secreted form of human NEP (shNEP) expressed as a C-terminal hexahistidine fusion protein (protein, UniProt P08473 52-750, looked up)
extracellular domain: YDDGICKSSDCIKSAARLIQNMDATTEPCTDFFKYACGGWLKRNVIPETSSRYGNFDILRDELEVVLKDVLQEPKTEDIVAVQKAKALYRSCINESAIDSRGGEPLLKLLPDIYGWPVATENWEQKYGASWTAEKAIAQLNSKYGKKVLINLFVGTDDKNSVNHVIHIDQPRLGLPSRDYYECTGIYKEACTAYVDFMISVARLIRQEERLPIDENQLALEMNKVMELEKEIANATAKPEDRNDPMLLYNKMTLAQIQNNFSLEINGKPFSWLNFTNEIMSTVNISITNEEDVVVYAPEYLTKLKPILTKYSARDLQNLMSWRFIMDLVSSLSRTYKESRNAFRKALYGTTSETATWRRCANYVNGNMENAVGRLYVEAAFAGESKHVVEDLIAQIREVFIQTLDDLTWMDAETKKRAEEKALAIKERIGYPDDIVSNDNKLNNEYLELNYKEDEYFENIIQNLKFSQSKQLKKLREKVDKDEWISGAAVVNAFYSSGRNQIVFPAGILQPPFFSAQQSNSLNYGGIGMVIGHEITHGFDDNGRNFNKDGDLVDWWTQQSASNFKEQSQCMVYQYGNFSWDLAGGQHLNGINTLGENIADNGGLGQAYRAYQNYIKKNGEEKLLPGLDLNHKQLFFLNFAQVWCGTYRPEYAVNSIKTDVHSPGNFRIIGTLQNSAEFSEAFHCRKNSYMNPEKKCRVW
modifications: extracellular domain C-terminal His6 tag
notes: secreted form of human NEP (shNEP) expressed as a C-terminal hexahistidine fusion protein
Insulin B Chain hydrolysis rate, dual substrate assay (insulin B chain [6]): 0.20 ± 0.04 pmol/min/ng | Insulin B Chain hydrolysis, activity relative to the uninhibited value (insulin B chain [6]; numbers in parenthesis): 0.23 | Rate of hydrolysis of leu-ENK (leu-ENK [7]): 1.90 ± 0.23 pmol/min/ng | Accumulation rate of peak Aß 1–9 (single cleavage G^9-Y^10) (Aß1–40 [8]): 7 Δarea/min/ng | Accumulation rate of peak Aß 1–16 (single cleavage K^16-L^17) (Aß1–40 [8]): 22 Δarea/min/ng | Accumulation rate of peak Aß 1–17 (single cleavage L^17-V^18) (Aß1–40 [8]): 75 Δarea/min/ng | Accumulation rate of peak Aß 4–9 (dual cleavages A^3-F^4, G^9-Y^10) (Aß1–40 [8]): 10 Δarea/min/ng | Accumulation rate of peak Aß 4–16 (dual cleavages A^3-F^4, K^16-L^17) (Aß1–40 [8]): 7 Δarea/min/ng | Accumulation rate of peak Aß 4–17 (dual cleavages A^3-F^4, L^17-V^18) (Aß1–40 [8]): 9 Δarea/min/ng | Accumulation rate of peak Aß 10–16 (dual cleavages G^9-Y^10, K^16-L^17) (Aß1–40 [8]): 4 Δarea/min/ng | Accumulation rate of peak Aß 10–17 (dual cleavages G^9-Y^10, L^17-V^18) (Aß1–40 [8]): 18 Δarea/min/ng | Accumulation rate of peak Aß 12–17 (dual cleavages E^11-V^12, L^17-V^18) (Aß1–40 [8]): 3 Δarea/min/ng | Accumulation rate of peak Aß 20–28 (dual cleavages F^19-F^20, K^28-G^29) (Aß1–40 [8]): 11 Δarea/min/ng | Accumulation rate of peak Aß 20–29 (dual cleavages F^19-F^20, G^29-A^30) (Aß1–40 [8]): 16 Δarea/min/ng | Accumulation rate of peak Aß 20–30 (dual cleavages F^19-F^20, A^30-I^31) (Aß1–40 [8]): 34 Δarea/min/ng | Rate of hydrolysis of Insulin B Chain (insulin B chain [9]): 0.86 ± 0.13 pmol/min/ng | Effect of NEP expression on cognitive deficits typically attributed to AD (Aß): ameliorates cognitive deficits | Effect of NEP expression on level of Aß (Aß): decreases the level of Aß | Rate of hydrolysis of Aß1–40 (Aß1–40 [10]): 198 ± 12 fmol/min/ng | Ratio leu-ENK insulin B chain [11]: 6 and 5.8 | Rate of accumulation of peak 1–5 (single cleavage H^5-L^6) (insulin B chain [13]): 59 Δarea/min/ng | Rate of accumulation of peak 1–10 (single cleavage H^10-L^11) (insulin B chain [13]): 163 Δarea/min/ng | Rate of accumulation of peak 1–11 (single cleavage L^11-V^12) (insulin B chain [13]): 88 Δarea/min/ng | Rate of accumulation of peak 1–14 (single cleavage A^14-L^15) (insulin B chain [13]): 167 Δarea/min/ng | Rate of accumulation of peak 1–16 (single cleavage Y^16-L^17) (insulin B chain [13]): 31 Δarea/min/ng | Rate of accumulation of peak 15–23 (two cleavages A^14-L^15, G^23-F^24) (insulin B chain [13]): 23 Δarea/min/ng | Rate of accumulation of peak 15–30 (single cleavage A^14-L^15) (insulin B chain [13]): 135 Δarea/min/ng | Rate of accumulation of peak 17–24 (two cleavages Y^16-L^17, F^24-F^25) (insulin B chain [13]): 33 Δarea/min/ng | Rate of accumulation of peak 17–30 (single cleavage Y^16-L^17) (insulin B chain [13]): 171 Δarea/min/ng | Rate of accumulation of peak 24–30 (single cleavage G^23-F^24) (insulin B chain [13]): 268 Δarea/min/ng | Specific Activity (Glut-Ala-Ala-Phe-MNA cleavage) ([14]; 100 µM Glut-Ala-Ala-Phe-MNA, fluorescence ex 340 nm, em 425 nm): 45.9 ± 2.5 pmol/min/ng | Km ([14]; Glut-Ala-Ala-Phe-MNA 20 to 500 µM, Michaelis-Menten fit): 51 ± 11 µM | leu-ENK hydrolysis rate, dual substrate assay (leu-ENK [15]): 1.16 ± 0.06 pmol/min/ng | leu-ENK hydrolysis, activity relative to the uninhibited value (leu-ENK [15]; numbers in parenthesis): 0.61
